Measurements reported in US20250215101A1, “DR5 Agonist and PLK1 Inhibitor or CDK Inhibitor Combination Therapy” (Inhibrx Biosciences, Inc., priority 2022, published 2025).

How the values were obtained:
HT-29 = assay: Cell viability (CellTiter-Glo) cytotoxicity assay, INBRX-109 x onvansertib matrix, 48 h; assay type: cell-based; settings: HT-29
Procedure: (§1) Monolayer cultures of each cell line were harvested for compound screening as detailed below.
(§2) Onvansertib: A 10 mg stock of onvansertib was purchased from Selleck Chemicals and was resuspended to 10 mM in DMSO. This was then aliquoted and stored at −80° C. Aliquots were thawed immediately prior to dilution and use in the assay. A 500× master plate of serial dilutions (6-point 5-fold dilutions in 100% DMSO starting at 500 μM, plus a DMSO only control) was prepared and mixed gently with a pipette. To generate a 5× working dilution plate of onvansertib, a 1:100 dilution was performed from the 500× plate into complete media (EMEM).
(§3) Also on day 2, test and control articles were added.
(§4) On day 4, viability measurements were taken. […] Data was graphed in GraphPad Prism 9.

LS174T = assay: as above; assay type: cell-based
Procedure: as §1, §2, §3, §4

LS411N = assay: as above; assay type: cell-based
Procedure: as §1, §2, §3, §4

SW1463 = assay: as above; assay type: cell-based; settings: SW1463
Procedure: as §1, §2, §3, §4

SW620 = assay: as above; assay type: cell-based; settings: SW620; INBRX-109 only (Table 1)
Procedure: as §1, §2, §3, §4

SW837 = assay: as above; assay type: cell-based; settings: SW837
Procedure: as §1, §2, §3, §4

AsPC-1 = assay: Cytotoxicity assay, pancreatic cell line panel, onvansertib +/- 1 nM INBRX-109; assay type: cell-based; settings: AsPC-1; 1 nM INBRX-109 only
Procedure: as §1, §3, §4
(§5) The results for a panel of colorectal cancer cell lines are shown in Table 3 and FIGS. 4-6, and the results for a panel of pancreatic cell lines are shown in Table 4 and FIGS. 7 and 8.

BxPC-3 = assay: as above; assay type: cell-based; settings: BxPC-3; 1 nM INBRX-109 only
Procedure: as §1, §3, §4, §5

CFPAC-1 = assay: as above; assay type: cell-based; settings: CFPAC-1; 1 nM INBRX-109 only
Procedure: as §1, §3, §4, §5

Capan-1 = assay: as above; assay type: cell-based; settings: Capan-1; 1 nM INBRX-109 only
Procedure: as §1, §3, §4, §5

Capan-2 = assay: as above; assay type: cell-based; settings: Capan-2; 1 nM INBRX-109 only
Procedure: as §1, §3, §4, §5

HPAF-II = assay: as above; assay type: cell-based; settings: 1 nM INBRX-109 only
Procedure: as §1, §3, §4, §5

HuP-T4 = assay: as above; assay type: cell-based; settings: HuP-T4; 1 nM INBRX-109 only
Procedure: as §1, §3, §4, §5

KP4 = assay: as above; assay type: cell-based; settings: KP4; 1 nM INBRX-109 only
Procedure: as §1, §3, §4, §5

MIA PaCa-2 = assay: as above; assay type: cell-based; settings: MIA PaCa-2; 1 nM INBRX-109 only
Procedure: as §1, §3, §4, §5

PANC-1 = assay: as above; assay type: cell-based; settings: PANC-1; 1 nM INBRX-109 only
Procedure: as §1, §3, §4, §5

PL45 = assay: as above; assay type: cell-based; settings: PL45; 1 nM INBRX-109 only
Procedure: as §1, §3, §4, §5

PSN-1 = assay: as above; assay type: cell-based; settings: PSN-1; 1 nM INBRX-109 only
Procedure: as §1, §3, §4, §5

Panc 03.27 = assay: as above; assay type: cell-based; settings: Panc 03.27; 1 nM INBRX-109 only
Procedure: as §1, §3, §4, §5

Panc 05.04 = assay: as above; assay type: cell-based; settings: Panc 05.04; 1 nM INBRX-109 only
Procedure: as §1, §3, §4, §5

Panc 10.05 = assay: as above; assay type: cell-based; settings: Panc 10.05; 1 nM INBRX-109 only
Procedure: as §1, §3, §4, §5

SU.86.86 = assay: as above; assay type: cell-based; settings: SU.86.86; 1 nM INBRX-109 only
Procedure: as §1, §3, §4, §5

SW-1990 = assay: as above; assay type: cell-based; settings: SW-1990; 1 nM INBRX-109 only
Procedure: as §1, §3, §4, §5

H-EMC-SS = assay: Cell viability (CellTiter-Glo) cytotoxicity assay, INBRX-109 x CDK9 or MCL-1 inhibitor matrix, 48 h, chondrosarcoma line
Procedure: On day 1, cells were seeded as follows. Monolayer cultures of each cell line (chondrosarcoma: CAL-78, OUMS-27, SW1353, and H-EMC-SS; colorectal cancer: SW620; and synovial sarcoma: HS-SY-II) were harvested for compound screening. Culture medium was aspirated, and the cells were washed once with PBS. Accutase was added and flasks were incubated at 37° C. until cells became detached. An equal volume of complete medium was added to quench the Accutase, and the cells were then pipetted up and down several times to generate a homogenous single cell suspension. The density and viability of cells was determined by Trypan Blue using a TC20 Automated Cell Counter. Experimental cells were resuspended to a concentration of 0.17×10^6/mL in Eagle's Minimum Essential Medium (EMEM)/10% FBS/Anti-Anti media (complete EMEM) and seeded in the inner wells of 384-well luminescence plates at 15 mL/well (2,500/well final). Each cell line was plated in duplicate on separate plates. Outer wells were filled with 50 mL PBS, then plates were incubated in a humidified temperature-controlled 37° C. tissue culture incubator at 5% CO2 overnight for 16 hours.
These test articles were added, in duplicate, to each cell line. The plates were then centrifuged at 400×g for 1 minute, then incubated in a 37° C. humidity-controlled tissue culture incubator (5% CO2) for 48 hours.
After incubation with the test articles, viability measurements were taken, briefly. Plates were equilibrated to room temperature for 10 minutes, then 25 μL of CellTiter-Glo 2.0® was added to each well. Plates were spun for 1 minute at 400×g, then covered and incubated in the dark for 10 minutes at room temperature. Any visible bubbles were removed with 100% ethanol vapor, then luminescence (RLU) was read on the Spectra Max M5e plate reader, using the 384-well opaque plate setting and SoftMax® Pro v5.4 software with an integration time of 50 milliseconds. To determine the effect of test articles on cell viability, raw RLU values were exported to Excel and percent survival was calculated as a percentage of vehicle control (0.5% DMSO in EMEM), where the vehicle control is set at 100%. Data was graphed in GraphPad Prism 9.

B1: INBRX-109: DR5-binding polypeptide consisting of SEQ ID NO: 7 (two VHH domains and an Fc region); DR5 agonist (protein)
chain: EVQLLESGGGEVQPGGSLRLSCAASGLTFPNYGMGWFRQAPGKEREFVSAIYWSGGTVYYAESVKGRFTISRDNAKNTLYLQMSSLRAEDTAVYYCAVTIRGAATQTWKYDYWGQGTLVTVKPGGSGGSEVQLLESGGGEVQPGGSLRLSCAASGLTFPNYGMGWFRQAPGKEREFVSAIYWSGGTVYYAESVKGRFTISRDNAKNTLYLQMSSLRAEDTAVYYCAVTIRGAATQTWKYDYWGQGTLVTVKPGGGGDKTHTCPPCPAPGGPSVFLFPPKPKDTLMISRTPEVTCVVVDVSHEDPEVKFNWYVDGVEVHNAKTKPREEQYNSTYRVVSVLTVLHQDWLNGKEYKCKVSNKALPAPIEKTISKAKGQPREPQVYTLPPSRDELTKNQVSLTCLVKGFYPSDIAVEWESNGQPENNYKTTPPVLDSDGSFFLYSKLTVDKSRWQQGNVFSCSVMHEALHNHYTQKSLSLSPGK
modifications: INBRX-109
notes: DR5 agonist
Max Cytotox (HT-29; INBRX-109 + 200 nM onvansertib): 94.94%
EC50 (HT-29; INBRX-109 only (Table 1)): 11.6 pM
Max Cytotox (HT-29; INBRX-109 only (Table 1)): 71.42%
EC50 (LS174T; INBRX-109 + 200 nM onvansertib): 90.7 pM
Max Cytotox (LS174T; INBRX-109 + 200 nM onvansertib): 79.32%
EC50 (LS174T; INBRX-109 only (Table 1)): 10.7 pM
Max Cytotox (LS174T; INBRX-109 only (Table 1)): 59.68%
Max Cytotox (LS411N; INBRX-109 + 200 nM onvansertib): 88.9%
EC50 (LS411N; INBRX-109 only (Table 1)): Unstable
EC50 (SW1463; INBRX-109 + 200 nM onvansertib): 4.95 pM
Max Cytotox (SW1463; INBRX-109 + 200 nM onvansertib): 73.74%
EC50 (SW1463; INBRX-109 only (Table 1)): 66 pM
Max Cytotox (SW1463; INBRX-109 only (Table 1)): 38.14%
EC50 (SW620): 4.78 pM
Max Cytotox (SW620): 20.25%
Max Cytotox (SW837; INBRX-109 + 200 nM onvansertib): 80.64%
EC50 (SW837; INBRX-109 only (Table 1)): 1.23 pM
Max Cytotox (SW837; INBRX-109 only (Table 1)): 6.43%
Max Cytotox at 1 nM (AsPC-1): 14.5%
Max Cytotox at 1 nM (BxPC-3): 51.3%
Max Cytotox at 1 nM (CFPAC-1): 23.8%
Max Cytotox at 1 nM (Capan-1): 86.9%
Max Cytotox at 1 nM (Capan-2): 11.1%
Max Cytotox at 1 nM (HPAF-II): 22.8%
Max Cytotox at 1 nM (HuP-T4): 80.7%
Max Cytotox at 1 nM (KP4): 7.8%
Max Cytotox at 1 nM (MIA PaCa-2): 77.9%
Max Cytotox at 1 nM (PANC-1): 32.6%
Max Cytotox at 1 nM (PL45): 14.1%
Max Cytotox at 1 nM (PSN-1): 91.9%
Max Cytotox at 1 nM (Panc 03.27): 53.2%
Max Cytotox at 1 nM (Panc 05.04): 97.0%
Max Cytotox at 1 nM (Panc 10.05): 23.8%
Max Cytotox at 1 nM (SU.86.86): 92.5%
Max Cytotox at 1 nM (SW-1990): 54.7%
EC50 (H-EMC-SS; INBRX-109 + 125 nM enitociclib): 2.33 pM
EC50 (H-EMC-SS; INBRX-109 + 125 nM flavopiridol): 1.46 pM
EC50 (H-EMC-SS; INBRX-109 + 2 μM AZD-5991): 2.59 pM
EC50 (H-EMC-SS; INBRX-109 only (Table 5)): 2.2 pM
EC50 (H-EMC-SS; INBRX-109 only (Table 7)): 1.96 pM
EC50 (H-EMC-SS; INBRX-109 only (Table 9)): 9.25 pM
EC50 (H-EMC-SS; INBRX-109 only (Table 11)): 9.26 pM
EC50 (H-EMC-SS; INBRX-109 only (Table 13)): 10.2 pM
